Laboratory results from patent US6312907.

Columns and labels:
[1] = target: B. burgdorferi N40 spirochetes (low-passage, intact cells); assay: competition: spirochetes preincubated with unlabeled competitor, then 125I-labeled Dcn
[2] = target: Bovine decorin (Dcn) purified from fetal skin (bovine) (UniProt P21793); assay: microtiter wells coated with increasing amounts of Dbps, biotin-labeled Dcn bound for 1 hour
[3] = target: Bovine decorin (Dcn) purified from fetal skin (bovine) (UniProt P21793); assay: competition: Dcn-coated wells preincubated with 200 ng protein, then B. burgdorferi N40; ELISA

## aggrecan isolated from bovine cartilage
[1]
  percent inhibition of binding of 125I-labeled Dcn: < 10%

## bovine serum albumin (BSA) (from UniProt P02769)
[1]
  percent inhibition of binding of 125I-labeled Dcn: < 10%

## DbpA:C25A (site-directed mutant of DbpA:549)
[2]
  activity compared with DbpA:549: < 80%
[3]
  percent inhibition of attachment of B. burgdorferi N40 to Dcn: 93%

## thyroglobulin type II (Sigma)
[1]
  percent inhibition of binding of 125I-labeled Dcn: < 10%

## fibrinogen (KabiVitrium)
[1]
  percent inhibition of binding of 125I-labeled Dcn: < 10%

## fetuin type IV (Sigma)
[1]
  percent inhibition of binding of 125I-labeled Dcn: < 10%

## DbpA:549 (recombinant polyhistidine fusion of DbpA of B. burgdorferi strain 297 lacking nine amino terminal residues)
[3]
  percent inhibition of attachment of B. burgdorferi N40 to Dcn: 93%
